Drawing on patent publication US20230115257A1 (published 2023), this text covers EC50 and IC50 for 14 molecules.

The labels stand for the following.
B1: 9-G24-A (antibody, V domains shown)
VH: QVQLQQSGAELVRPGASVKLSCKASGYTFTDYEMHWVKQTPVHGLEWIGVIDPETGDTAYNQKFKDKATLTADKSSSTAYMELRSLTSEDSAVYYCARRRDYGNPYWYFDVWGAGTAVTVSS
VL: EIVLTQSPALMAASPGEKVTITCSASSSISSSNLHWYQQKSGTSPKPWIYGTSNLASGVPVRFSGSGSGTSYSLTISSMEAEDAATYVCQQWSNYPYTFGSGTKLEIK
B2: 3-K11-A (antibody, V domains shown)
VH: EVQLQQSGPELVKPGASVKMSCKASGYTFTSYVMHWVKQKPGQGLEWIGYINPYNDGTEYNEKFKGKATLTSDKSSSTAYMELSSLTSEDSAVYHCAREAYRYFDVWGTGTTVTVSS
VL: DIQMTQSPASLSVSVGETVTITCRASENIYSNLAWYQQKQGKYPQLLVYGATNLADGVPSRFSGSGSGTQYFLKINSLQSEDFGSYYCQHFWGIPWTFGGGTKLEIK
B3: 2-B16-B (antibody, V domains shown)
VH: EVQLQQSGAELVRPGSSVKMSCKTSGYTFTSYGINWVKQRPGQGLEWIGYIYIGNGYTAYNEKFKGKATLTSDTSSSTAYMQLSSLTSEDSAIYFCARDGTRDAMDYWGQGTSVTVSS
VL: B2 VL with V13A, Y43S, G50A, Y71F, F72S, S80P, W92Y, G93S, I94S
B4: 4-M3-A (antibody, V domains shown)
VH: EVQLQQSGPELVKPGDSVKISCKASGYSFTGYFMNWVMQSHGKSLEWIGRINPNNGETFYNQKFKGKATLTVDKSSDTAHMELRSLTSEDSAVYYCARGGTGTGWGQGTTLTVSS
VL: DILMTQSPSSMSVSLGDTVSITCHASQGISSNIGWLQQKPGKSFKGLIYYGTNLEDGVPSRFSGSGSGADYSLTISSLESEDLADYYCIQYAQFPYTFGGGTKLEIK
B5: 3-E2-A (antibody, V domains shown)
VH: EVQLQQSGPELVKPGASVKISCKASGYTFTDYYMNWVKQSHGKSLEWIGDINPNNGGTSYTQKFKGKATLTVDKSSSKAYMELRSLTSEDSAVYYCARRGDGHYGGFTYWGQGTLVTVSA
VL: not shown
B6: 10-L24-A (antibody, V domains shown)
VH: B5 VH with P53S, S59T, T61D, K74R, K78T, Y104F
VL: not shown
B7: 2-O12-A (antibody, V domains shown)
VH: B5 VH with P53S, S59T, T61D, K74R, K78T, Y104F
VL: not shown
B8: 1-L10-A (antibody, V domains shown)
VH: EVKLEESGGGLVQPGGSMKLSCVASGFTFNNYWMNWVRQSPEKGLEWVAQMRLKSDNYATHYAESVKGRFTISRDDSKSSVYLQMNNLRAEDTGIYYCIEGYWTYWGQGTLVTVSA
VL: QIVLTQSPAIMSASLGERVTMTCTASSSVSSSYLHWYQQKPGSSPKLWIYSTSNLASGVPARFSGNGSGTSYSLTISSMEAEDAATYYCLQYHRSPPYTFGGGTKLEIK
B9: 2-G20-A (antibody, V domains shown)
VH: EVQLQQSGPELVKPGASVKMSCKASGYTFPSYVLHWVKQKPGQGLEWIGYIYPYNDGTNYNEKFKGKATLTSDKSSSTAYMELSSLTSEDSAVYYCARGDYGDSAWFPYWGQGTLVTVSA
VL: DIVLTQSPASLAVSLGQRATISCRASKSVSTSGYSYMHWYQQKPGQPPKLLIYLASNLKSGVPARFSGGGSGTDFTLNIHPVEEEDAATYYCQLSRELPWTFGGGTKLEIK
B10: 2-H7-A (antibody, V domains shown)
VH: QAYLQQSGAELVRPGASVKMSCKASGYTFTGYTMHWVKQTPRQGLEWIGAIYPENGDTSYNQKFKGKATLTVDKSSSTAYMQLSSLTSEDSAVYFCARDGYDVLYGMDYWGQGTSVTVSS
VL: B9 VL with K59E, G69S, L94H, E109D
B11: 4-L4-A (antibody, V domains shown)
VH: QAYLQQSGAELVRPGASVKMSCKASGYTFTSYTVHWVKQTPRQGLEWIGGIYPGNVDTSYNQNFKGKATLTVDKSSSTAYMQLSSLTSEDSAVYFCARDGYYAMDYWGQGTSVTVSS
VL: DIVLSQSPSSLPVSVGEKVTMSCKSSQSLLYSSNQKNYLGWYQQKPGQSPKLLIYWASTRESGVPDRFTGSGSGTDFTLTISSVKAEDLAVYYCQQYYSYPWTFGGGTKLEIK
B12: 6-O12-A (antibody, V domains shown)
VH: QVQLQQPGTELVKPGASVKLSCKASGYTFTSYWMHWVKQRPGQGLEWIGNINPSNGGTNYNEKFRSKATLTVDKSSSTAYMQLSSLTSEDSAVYYCARLGWFLPLGSWGQGTTLTVSS
VL: QIVLTQSPAIMSASLGEVITLTCSASSSVSYMHWYQQKSGTSPKLLIYSTSNLASGVPSRFSGSGSGTFYSLTISSVEAEDAADYYCHQWSGYMYTFGGGTKLEIK
B13: 1-B11-A (antibody, V domains shown)
VH: QVQLQQSGPELVKPGASVKISCKASGYTFTDHYINWVKQRPGQGLEWIGWIFPGSGSTYYNEQFKGKATLTVDKSSNTAYMLLSSLTSEDSAVYFCARSGGLRLGFAYWGQGTLVTVSA
VL: DIQMTQTTSSLSASLGDRVTISCRASQDISNYLNWYQQKPDGTVKLLIYYTSRLHSGVPSRFSGSGSGTDYSLTISNLEQEDISTYFCQQVNTLPYTFGGGTKLEIK
B14: 4-K13-A (antibody, V domains shown)
VH: B11 VH with G50A
VL: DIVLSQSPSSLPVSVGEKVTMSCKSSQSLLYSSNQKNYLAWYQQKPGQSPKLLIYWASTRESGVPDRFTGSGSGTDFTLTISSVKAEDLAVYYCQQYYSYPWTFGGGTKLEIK

Where a chain is given by its changes, count along the chain named. “And” between values parts separate entries of the source, which are not always exact repeats. Identical values can stand only once.

The first test deals with T1, SARS-CoV-2 Beta (B.1.351) variant prefusion stabilized spike trimer protein (UniProt P0DTC2 14-1213). In words: ELISA. A general note: In an ELISA, binding on a coated surface is turned into a signal by an enzyme label.
As usually defined, the EC50 is the midpoint of the concentration-response curve. A higher EC50 goes with weaker potency. In the case of B1, a half-maximal response (EC50) required 0.56 nM.

Consider B2, for which the EC50 was determined as 2.87 nM.

Regarding B3, the response was half-maximal at 0.27 nM (EC50).

In another test the target is T2, SARS-CoV-2 B.1.617.2 spike trimer variant (SARS-CoV-2 B.1.617.2 (Delta), UniProt P0DTC2 16-1213). Kind of test: ELISA.
One may read the IC50 as the concentration that gives 50% inhibition. Take B4: the IC50 was 9.3 µg/mL and 62.1 nM.

With B5, the IC50 is 9 µg/mL and 59.9 nM.

For B6, the IC50 was 2.9 µg/mL and 19.5 nM.

In the case of B7, the half-inhibitory concentration (IC50) was 4.2 µg/mL and 28 nM.

The next test deals with T3, SARS-CoV-2 BA.2 spike trimer variant (SARS-CoV-2 Omicron BA.2, UniProt P0DTC2 16-1213). In words: ELISA.
As for B6, the midpoint of inhibition, the IC50, lay at 97.3 nM.

For another test, the target named is T1, SARS-CoV-2 Beta (B.1.351) variant …. Kind of test: ELISA. The source holds these as a separate data set.
Turning to B8, half-maximal inhibition (IC50) required 10.8 nM.

B4 had an IC50 of 10.8 nM.

B9: the IC50 was determined as 18.6 nM.

The molecule B10 registered an IC50 of 10.8 nM.

Molecule B7 showed an IC50 of 84.3 nM.

Turning to B11, the IC50 was 5.99 nM.

Molecule B12 showed an IC50 of 7.76 nM.

For another test, the target named is T2, SARS-CoV-2 B.1.617.2 spike trimer …. In words: ELISA. The source holds these as a separate data set.
In turn, B4 came in with an IC50 of 62.1 nM.

Regarding B5, it took 59.9 nM to reach half-maximal inhibition (IC50).

B6 returned an IC50 of 19.5 nM.

B7 yielded an IC50 of 28 nM.

In a further test the target is T3, SARS-CoV-2 BA.2 spike trimer variant. Kind of test: ELISA. This is another data set of the same source.
For B13, the response was half-maximal at 181 nM (EC50).

As for B5, the EC50 amounted to 71.6 nM.

The molecule B6 had an EC50 of 61.9 nM.

B7 registered an EC50 of 192 nM.

A further test addresses T2, SARS-CoV-2 B.1.617.2 spike trimer …. Kind of test: ELISA. This is another data set of the same source.
Take B4: the EC50 was 0.522 nM and 0.081 µg/mL.

Regarding B13, the EC50 is 0.12 µg/mL and 0.772 nM.

As for B5, the EC50 is 0.547 nM and 0.085 µg/mL.

For the molecule B6, the EC50 was 0.063 µg/mL and 0.405 nM.

Take B7: the EC50 is 0.096 µg/mL and 0.625 nM.

In the case of B14, the EC50 was 29.3 nM and 4.54 µg/mL.

The next test concerns the target SARS-CoV-2 B.1.1.529 spike trimer variant (SARS-CoV-2 B.1.1.529 (Omicron), UniProt P0DTC2 16-1213). In words: ELISA.
In the case of B13, the EC50 was 1.88 nM.

B6 registered an EC50 of 20.6 nM.

B7 came in with an EC50 of 30.1 nM.

For B2, it took 20.6 nM to reach a half-maximal effect (EC50).

The next test concerns the target T3, SARS-CoV-2 BA.2 spike trimer variant. In words: ELISA. This is another data set of the same source.
As to B6, the IC50 was 97 nM.
